Results published in patent publication US20130115645.

Target: human prothrombin (Enzyme Research Laboratories), P00734

B1: Fibrinogen-like protein 2 (FGL-2)/fibroleukin, human (protein)
chain: NNETEEIKDERAKDVCPVRLESRGKCEEAGECPYQVSLPPLTIQLPKQFSRIEEVFKEVQNLKEIVNSLKKSCQDCKLQADDNGDPGRNGLLLPSTGAPGEVGDNRVRELESEVNKLSSELKNAKEEINVLHGRLEKLNLVNMNNIENYVDSKVANLTFVVNSLDGKCSKCPSQEQIQSRPVQHLIYKDCSDYYAIGKRSSETYRVTPDPKNSSFEVYCDMETMGGGWTVLQARLDGSTNFTRTWQDYKAGFGNLRREFWLGNDKIHLLTKSKEMILRIDLEDFNGVELYALYDQFYVANEFLKYRLHVGNYNGTAGDALRFNKHYNHDLKFFTTPDKDNDRYPSGNCGLYYSSGWWFDACLSANLNGKYYHQKYRGVRNGIFWGTWPGVSEAHPGGYKSSFKEAKMMIRPKHFKP
- FGL-2 prothrombinase activity (thrombin generation assay, chromogenic substrate, 405 nm): FGL-2 prothrombinase activity in HUVEC was only observed following maximal stimulation with TNFα
